In patent US20130115678 one finds activity (fidelity index) data, which are given here for one substance.

Holding throughout (experiment): cleavage_in_vitro
In data set [1] the target is EcoRI-HF K62E (Escherichia coli RY13) (UniProt P00642). The note with it: NEB4, 37 C, Mg2+; FI NEB1-3: 2000, 4000, 250.
In data set [2] the test system is T1, SbfI (Streptomyces species Bf-61).
T1 sequence: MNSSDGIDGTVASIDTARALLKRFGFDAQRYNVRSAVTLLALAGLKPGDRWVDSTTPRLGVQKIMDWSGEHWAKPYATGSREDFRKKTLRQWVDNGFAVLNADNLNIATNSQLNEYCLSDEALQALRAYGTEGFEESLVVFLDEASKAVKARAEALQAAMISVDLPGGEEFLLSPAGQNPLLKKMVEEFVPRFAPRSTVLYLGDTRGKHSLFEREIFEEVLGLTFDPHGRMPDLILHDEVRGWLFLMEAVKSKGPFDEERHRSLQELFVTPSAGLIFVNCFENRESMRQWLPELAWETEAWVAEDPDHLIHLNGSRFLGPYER
The note with it: NEB4, 37 C, Mg2+; FI NEB1-3: 32, 8, 8.

In data set [3] the target is T2, BamHI (Bacillus amyloliquefaciens) (UniProt P23940).
T2 sequence: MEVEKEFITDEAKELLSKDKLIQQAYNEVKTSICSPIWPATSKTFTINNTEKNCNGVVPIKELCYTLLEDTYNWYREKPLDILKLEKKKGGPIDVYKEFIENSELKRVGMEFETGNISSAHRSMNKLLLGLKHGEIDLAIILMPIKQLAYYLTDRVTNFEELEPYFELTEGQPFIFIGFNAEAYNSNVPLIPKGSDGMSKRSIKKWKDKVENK
The note with it: NEB4, 37 C, Mg2+; FI NEB1-3: 4, 4, 32.

The test system of data set [4] is T3, SphI-HF K100A (Streptomyces phaeochromogenes).
T3 sequence: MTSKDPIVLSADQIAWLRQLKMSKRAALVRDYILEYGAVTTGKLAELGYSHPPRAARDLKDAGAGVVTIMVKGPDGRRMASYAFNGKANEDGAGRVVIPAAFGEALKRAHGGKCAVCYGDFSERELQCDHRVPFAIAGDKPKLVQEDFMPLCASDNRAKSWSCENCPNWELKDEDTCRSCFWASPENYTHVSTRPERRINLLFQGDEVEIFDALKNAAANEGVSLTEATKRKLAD
Particulars: NEB4, 37 C, Mg2+; FI NEB1-3: 4000, 2000, 250.

The subject of data set [5] is BstXI (Bacillus stearothermophilus). The note with it: NEB4, 55 C, Mg2+; FI NEB1-3: 2, 2, 2.
The target of data set [6] is T4, PstI-HF D91A (Providencia stuartii 164) (UniProt P00640).
T4 sequence: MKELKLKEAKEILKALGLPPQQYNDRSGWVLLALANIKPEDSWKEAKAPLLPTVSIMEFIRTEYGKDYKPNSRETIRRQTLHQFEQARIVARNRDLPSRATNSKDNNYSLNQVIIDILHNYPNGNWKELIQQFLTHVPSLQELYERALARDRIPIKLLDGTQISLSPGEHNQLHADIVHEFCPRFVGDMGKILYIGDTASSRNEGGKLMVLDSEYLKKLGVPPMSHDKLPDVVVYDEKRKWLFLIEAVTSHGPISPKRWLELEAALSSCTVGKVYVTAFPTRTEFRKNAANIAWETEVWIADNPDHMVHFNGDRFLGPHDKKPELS
The note with it: NEB4, 37 C, Mg2+; FI NEB1-3: 1000, 4000, 4000.

The test system of data set [7] is T5, SbfI-HF K251A (Streptomyces species Bf-61).
T5 sequence: T1 sequence with K251A
Particulars: NEB4, 37 C, Mg2+; FI NEB1-3: 1000, 120, 8.

Data set [8] relates to T6, BspQI (Bacillus sphaericus).
T6 sequence: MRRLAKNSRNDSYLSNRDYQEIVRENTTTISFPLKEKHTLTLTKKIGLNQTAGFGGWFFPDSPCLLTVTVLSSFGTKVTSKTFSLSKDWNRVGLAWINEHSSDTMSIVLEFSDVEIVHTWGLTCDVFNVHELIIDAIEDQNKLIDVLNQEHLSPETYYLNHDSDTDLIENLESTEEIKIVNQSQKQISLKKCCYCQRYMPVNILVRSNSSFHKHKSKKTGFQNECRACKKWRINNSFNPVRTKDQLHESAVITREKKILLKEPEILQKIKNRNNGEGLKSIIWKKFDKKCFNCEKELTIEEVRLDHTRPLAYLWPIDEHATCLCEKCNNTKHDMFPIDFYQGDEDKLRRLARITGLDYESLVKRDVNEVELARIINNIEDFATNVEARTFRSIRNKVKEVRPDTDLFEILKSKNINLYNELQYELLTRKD
The note with it: NEB4, 50 C, Mg2+; FI NEB1-3: 2, 16, 32.

Data set [9] has as its target T7, HindIII (Haemophilus influenzae Rd) (UniProt P43870).
T7 sequence: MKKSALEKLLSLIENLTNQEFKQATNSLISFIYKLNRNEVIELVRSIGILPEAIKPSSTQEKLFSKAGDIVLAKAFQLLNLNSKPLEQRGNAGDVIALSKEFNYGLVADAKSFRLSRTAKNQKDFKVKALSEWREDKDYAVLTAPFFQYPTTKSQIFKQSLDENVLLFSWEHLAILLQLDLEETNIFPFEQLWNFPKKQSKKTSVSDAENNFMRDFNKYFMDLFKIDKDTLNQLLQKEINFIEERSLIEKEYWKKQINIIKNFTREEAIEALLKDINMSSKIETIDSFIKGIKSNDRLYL
Particulars: NEB4, 37 C, Mg2+; FI NEB1-3: 32, 250, 4000.

Numbering of substitutions follows the chain as printed.

For the substance lambda phage DNA, the activity (fidelity index) in data set [1] amounted to 16000; in data set [2] it was 8; in data set [3], 4; in data set [4], 8000; in data set [5], 4; in [6], 4000. Moreover, the activity (fidelity index) in data set [7] was determined as 250; in data set [8], 4; in data set [9], 32.
